Data published in publication PMC8809517, “Cofactor-independent RNA editing by a synthetic S-type PPR protein”.

T1: GFP-9S library array, motif 4 ND N98G;D124P (synthetic construct, N98G;D124P)
T1 chain: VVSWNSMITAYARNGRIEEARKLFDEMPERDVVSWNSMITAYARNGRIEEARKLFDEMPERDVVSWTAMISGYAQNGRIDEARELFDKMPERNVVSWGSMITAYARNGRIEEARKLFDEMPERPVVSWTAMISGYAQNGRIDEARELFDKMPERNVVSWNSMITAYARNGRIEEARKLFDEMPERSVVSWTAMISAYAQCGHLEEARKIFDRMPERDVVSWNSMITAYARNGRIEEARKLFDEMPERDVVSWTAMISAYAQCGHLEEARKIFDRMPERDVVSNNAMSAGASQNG

T2: GFP-9S library array, motif 4 ND N98L;D124A (synthetic construct, N98L;D124A)
T2 chain: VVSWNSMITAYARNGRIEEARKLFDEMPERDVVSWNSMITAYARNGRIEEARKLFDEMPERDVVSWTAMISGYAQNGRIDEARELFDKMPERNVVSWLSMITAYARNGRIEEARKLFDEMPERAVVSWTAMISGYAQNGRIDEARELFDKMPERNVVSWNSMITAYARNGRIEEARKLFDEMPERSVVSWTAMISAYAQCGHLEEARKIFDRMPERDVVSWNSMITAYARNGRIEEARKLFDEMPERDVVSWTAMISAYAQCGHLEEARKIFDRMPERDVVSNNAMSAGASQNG

T3: GFP-9S library array, motif 4 ND N98T;D124Y (synthetic construct, N98T;D124Y)
T3 chain: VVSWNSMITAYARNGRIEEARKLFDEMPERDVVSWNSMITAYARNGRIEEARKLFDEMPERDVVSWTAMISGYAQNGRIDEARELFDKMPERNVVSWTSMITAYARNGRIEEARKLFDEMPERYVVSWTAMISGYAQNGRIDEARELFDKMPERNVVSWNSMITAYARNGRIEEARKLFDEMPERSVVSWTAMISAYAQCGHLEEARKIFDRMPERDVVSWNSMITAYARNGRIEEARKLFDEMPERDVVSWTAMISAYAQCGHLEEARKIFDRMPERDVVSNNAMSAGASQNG

T4: GFP-9S library array, motif 4 ND N98G (synthetic construct, N98G)
T4 chain: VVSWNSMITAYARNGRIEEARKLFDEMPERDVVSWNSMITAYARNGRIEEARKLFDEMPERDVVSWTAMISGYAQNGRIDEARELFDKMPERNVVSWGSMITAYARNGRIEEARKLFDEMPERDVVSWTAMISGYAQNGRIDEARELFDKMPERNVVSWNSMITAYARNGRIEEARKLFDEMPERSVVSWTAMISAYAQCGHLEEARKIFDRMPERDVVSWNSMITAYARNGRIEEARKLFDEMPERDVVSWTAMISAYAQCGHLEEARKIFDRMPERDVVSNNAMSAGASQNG

T5: GFP-9S library array, motif 4 ND N98R;D124W (synthetic construct, N98R;D124W)
T5 chain: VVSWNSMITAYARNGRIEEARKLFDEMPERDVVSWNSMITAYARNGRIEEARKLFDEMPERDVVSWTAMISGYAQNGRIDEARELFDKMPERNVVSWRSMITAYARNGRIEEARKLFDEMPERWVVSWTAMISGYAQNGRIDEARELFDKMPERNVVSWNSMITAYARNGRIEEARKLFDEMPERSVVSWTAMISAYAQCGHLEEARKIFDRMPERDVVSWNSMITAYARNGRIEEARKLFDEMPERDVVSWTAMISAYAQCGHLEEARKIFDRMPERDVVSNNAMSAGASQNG


Columns and labels:
Test in all cases: high-throughput RNA pulldown from lysate on Ni-NTA beads; HRP: 50 mM Tris pH 8, 150 mM NaCl, 1 mM beta-mercaptoethanol, 50 ug/ml BSA, 3 ug/ml yeast RNA, 0.5% heparin; ITC and FP: Tris pH 8, 200 mM KCl, 5% glycerol; MST: 50 mM Tris pH 8, 200 mM NaCl, 1 mM DTT, BSA, heparin, 0.05% Tween 20
Details in all cases: tags: N-terminal His-eGFP
[1] = target: T1, GFP-9S library array, motif 4 ND …
[2] = target: T2, GFP-9S library array, motif 4 ND …
[3] = target: T3, GFP-9S library array, motif 4 ND …
[4] = target: T4, GFP-9S library array, motif 4 ND N98G
[5] = target: T5, GFP-9S library array, motif 4 ND …

| Binder | Kd ([1]; label: 5' Cy5) | Kd ([2]; label: 5' Cy5) | Kd ([3]; label: 5' Cy5) | Kd ([4]; label: 5' Cy5) | Kd ([5]; label: 5' Cy5) | Kd ([1]; label: 5' IRDye 800CW) | Kd ([2]; label: 5' IRDye 800CW) | Kd ([3]; label: 5' IRDye 800CW) | Kd ([4]; label: 5' IRDye 800CW) | Kd ([5]; label: 5' IRDye 800CW) |
| --- | --- | --- | --- | --- | --- | --- | --- | --- | --- | --- |
| AUUAGACGUGA (ssRNA) [Cy5-rpoA-G] | 127 nM | 71.4 nM | 105 nM | 32.5 nM | 88.7 nM | – | – | – | – | – |
| AUUAAACGUGA (ssRNA) [IR-rpoA-A] | – | – | – | – | – | 179 nM | 90.9 nM | 90.9 nM | 495 nM | 249 nM |
| AUUACACGUGA (ssRNA) [Cy5-rpoA] | 85.9 nM | 47.4 nM | 145 nM | 402 nM | 147 nM | – | – | – | – | – |
| AUUAUACGUGA (ssRNA) [IR-rpoA-U] | – | – | – | – | – | 128 nM | 43.4 nM | 147 nM | 408 nM | 337 nM |
